Reference: IntAct's records for PubMed 31515488

B1: Peroxisomal bifunctional enzyme (Homo sapiens), Q08426 (parent)
chain: MAEYTRLHNALALIRLRNPPVNAISTTLLRDIKEGLQKAVIDHTIKAIVICGAEGKFSAGADIRGFSAPRTFGLTLGHVVDEIQRNEKPVVAAIQGMAFGGGLELALGCHYRIAHAEAQVGLPEVTLGLLPGARGTQLLPRLTGVPAALDLITSGRRILADEALKLGILDKVVNSDPVEEAIRFAQRVSDQPLESRRLCNKPIQSLPNMDSIFSEALLKMRRQHPGCLAQEACVRAVQAAVQYPYEVGIKKEEELFLYLLQSGQARALQYAFFAERKANKWSTPSGASWKTASARPVSSVGVVGLGTMGRGIVISFARARIPVIAVDSDKNQLATANKMITSVLEKEASKMQQSGHPWSGPKPRLTSSVKELGGVDLVIEAVFEEMSLKKQVFAELSAVCKPEAFLCTNTSALDVDEIASSTDRPHLVIGTHFFSPAHVMKLLEVIPSQYSSPTTIATVMNLSKKIKKIGVVVGNCFGFVGNRMLNPYYNQAYFLLEEGSKPEEVDQVLEEFGFKMGPFRVSDLAGLDVGWKSRKGQGLTGPTLLPGTPARKRGNRRYCPIPDVLCELGRFGQKTGKGWYQYDKPLGRIHKPDPWLSKFLSRYRKTHHIEPRTISQDEILERCLYSLINEAFRILGEGIAASPEHIDVVYLHGYGWPRHKGGPMFYASTVGLPTVLEKLQKYYRQNPDIPQLEPSDYLKKLASQGNPPLKEWQSLAGSPSSKL
B2: Zinc finger and SCAN domain-containing protein 9 (Homo sapiens), O15535 (parent)
chain: MNTNSKEVLSLGVQVPEAWEELLTMKVEAKSHLQWQESRLKRSNPLAREIFRRHFRQLCYQETPGPREALTRLQELCYQWLRPHVSTKEQILDLLVLEQFLSILPKELQGWVREHCPESGEEAVILLEDLERELDEPQHEMVAHRHRQEVLCKEMVPLAEQTPLTLQSQPKEPQLTCDSAQKCHSIGETDEVTKTEDRELVLRKDCPKIVEPHGKMFNEQTWEVSQQDPSHGEVGEHKDRIERQWGNLLGEGQHKCDECGKSFTQSSGLIRHQRIHTGERPYECNECGKAFSRSSGLFNHRGIHNIQKRYHCKECGKVFSQSAGLIQHQRIHKGEKPYQCSQCSKSYSRRSFLIEHQRSHTGERPHQCIECGKSFNRHCNLIRHQKIHTVAELV
B3: Centrosomal protein POC5 (Homo sapiens), Q8NA72 (parent)
chain: MSSDEEKYSLPVVQNDSSRGSSVSSNLQEEYEELLHYAIVTPNIEPCASQSSHPKGELVPDVRISTIHDILHSQGNNSEVRETAIEVGKGCDFHISSHSKTDESSPVLSPRKPSHPVMDFFSSHLLADSSSPATNSSHTDAHEILVSDFLVSDENLQKMENVLDLWSSGLKTNIISELSKWRLNFIDWHRMEMRKEKEKHAAHLKQLCNQINELKELQKTFEISIGRKDEVISSLSHAIGKQKEKIELMRTFFHWRIGHVRARQDVYEGKLADQYYQRTLLKKVWKVWRSVVQKQWKDVVERACQARAEEVCIQISNDYEAKVAMLSGALENAKAEIQRMQHEKEHFEDSMKKAFMRGVCALNLEAMTIFQNRNDAGIDSTNNKKEEYGPGVQGKEHSAHLDPSAPPMPLPVTSPLLPSPPAAVGGASATAVPSAASMTSTRAASASSVHVPVSALGAGSAATAASEEMYVPRVVTSAQQKAGRTITARITGRCDFASKNRISSSLAIMGVSPPMSSVVVEKHHPVTVQTIPQATAAKYPRTIHPESSTSASRSLGTRSAHTQSLTSVHSIKVVD
partner: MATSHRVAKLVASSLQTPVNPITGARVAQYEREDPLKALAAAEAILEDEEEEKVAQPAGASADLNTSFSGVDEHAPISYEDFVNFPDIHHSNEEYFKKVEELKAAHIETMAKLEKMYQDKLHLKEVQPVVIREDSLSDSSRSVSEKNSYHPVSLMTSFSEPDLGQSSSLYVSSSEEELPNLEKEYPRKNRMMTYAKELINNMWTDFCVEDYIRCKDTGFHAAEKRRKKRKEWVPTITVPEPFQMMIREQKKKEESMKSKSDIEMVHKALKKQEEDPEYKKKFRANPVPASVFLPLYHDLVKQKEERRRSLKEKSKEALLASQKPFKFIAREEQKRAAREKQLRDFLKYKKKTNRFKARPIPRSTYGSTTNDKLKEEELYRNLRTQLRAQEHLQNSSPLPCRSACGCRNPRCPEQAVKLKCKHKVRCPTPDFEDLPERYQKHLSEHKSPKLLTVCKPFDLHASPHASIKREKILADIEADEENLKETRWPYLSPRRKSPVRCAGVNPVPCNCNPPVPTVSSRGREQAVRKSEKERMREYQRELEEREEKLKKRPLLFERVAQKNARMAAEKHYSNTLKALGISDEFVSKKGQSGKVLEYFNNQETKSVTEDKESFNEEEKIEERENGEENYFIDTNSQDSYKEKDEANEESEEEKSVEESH
B4: Centrosomal protein POC5 (Homo sapiens), Q8NA72 (parent)
chain: B3 chain
partner: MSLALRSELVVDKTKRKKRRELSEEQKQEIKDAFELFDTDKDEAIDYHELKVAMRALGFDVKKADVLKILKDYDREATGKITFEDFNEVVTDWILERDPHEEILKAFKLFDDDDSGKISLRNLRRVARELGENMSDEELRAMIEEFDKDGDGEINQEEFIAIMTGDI
B5: Centrosomal protein of 55 kDa (Homo sapiens), Q53EZ4 (parent)
chain: MSSRSTKDLIKSKWGSKPSNSKSETTLEKLKGEIAHLKTSVDEITSGKGKLTDKERHRLLEKIRVLEAEKEKNAYQLTEKDKEIQRLRDQLKARYSTTTLLEQLEETTREGERREQVLKALSEEKDVLKQQLSAATSRIAELESKTNTLRLSQTVAPNCFNSSINNIHEMEIQLKDALEKNQQWLVYDQQREVYVKGLLAKIFELEKKTETAAHSLPQQTKKPESEGYLQEEKQKCYNDLLASAKKDLEVERQTITQLSFELSEFRRKYEETQKEVHNLNQLLYSQRRADVQHLEDDRHKTEKIQKLREENDIARGKLEEEKKRSEELLSQVQFLYTSLLKQQEEQTRVALLEQQMQACTLDFENEKLDRQHVQHQLHVILKELRKARNQITQLESLKQLHEFAITEPLVTFQGETENREKVAASPKSPTAALNESLVECPKCNIQYPATEHRDLLVHVEYCSK

Variants of: B1
Settings: with tpp2_human TPP2, P29144

Variant | effect of a mutation on the interaction
S703F | with no effect
R556G | with no effect
R483Q | disrupting interaction strength
I646T | disrupting interaction strength

Variants of: B1
Settings: with actb_human ACTB

Variant | effect of a mutation on the interaction
S703F | with no effect
R556G | with no effect
R483Q | disrupting interaction strength
I646T | disrupting interaction strength

Variants of: B1
Settings: with actg_human ACTG1, P63261

Variant | effect of a mutation on the interaction
S703F | with no effect
R556G | with no effect
R483Q | disrupting interaction strength
I646T | disrupting interaction strength

Variants of: B1
Settings: with tnip1_human TNIP1, Q15025
tnip1_human TNIP1, Q15025, sequence (Q15025 whole entry): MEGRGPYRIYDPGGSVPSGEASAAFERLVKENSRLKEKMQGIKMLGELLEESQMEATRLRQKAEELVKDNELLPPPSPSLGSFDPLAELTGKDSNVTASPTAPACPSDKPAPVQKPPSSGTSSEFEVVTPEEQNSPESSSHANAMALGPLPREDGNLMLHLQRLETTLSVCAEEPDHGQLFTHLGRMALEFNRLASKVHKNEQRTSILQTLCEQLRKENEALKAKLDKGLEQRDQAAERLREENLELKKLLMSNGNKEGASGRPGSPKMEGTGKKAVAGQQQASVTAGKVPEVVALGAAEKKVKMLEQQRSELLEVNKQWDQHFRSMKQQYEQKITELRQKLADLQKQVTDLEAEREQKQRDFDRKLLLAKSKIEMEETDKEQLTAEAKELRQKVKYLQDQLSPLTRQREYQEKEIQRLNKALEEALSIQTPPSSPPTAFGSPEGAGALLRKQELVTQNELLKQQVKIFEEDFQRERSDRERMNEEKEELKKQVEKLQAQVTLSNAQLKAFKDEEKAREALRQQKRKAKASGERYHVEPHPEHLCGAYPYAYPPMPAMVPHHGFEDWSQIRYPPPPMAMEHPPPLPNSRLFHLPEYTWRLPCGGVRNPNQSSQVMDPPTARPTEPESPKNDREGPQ

Variant | effect of a mutation on the interaction
S703F | with no effect
R483Q | with no effect
I646T | disrupting interaction strength

Variants of: B1
Settings: with fund1_human FUNDC1, Q8IVP5
fund1_human FUNDC1, Q8IVP5, sequence (Q8IVP5 whole entry): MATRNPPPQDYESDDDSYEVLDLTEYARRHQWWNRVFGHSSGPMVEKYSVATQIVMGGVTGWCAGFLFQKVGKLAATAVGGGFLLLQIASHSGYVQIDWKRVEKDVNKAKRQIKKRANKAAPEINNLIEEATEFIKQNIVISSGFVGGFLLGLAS

Variant | effect of a mutation on the interaction
Q685K | disrupting interaction strength

Variants of: B1
Settings: with tri41_human TRIM41, Q8WV44

Variant | effect of a mutation on the interaction
Q685K | with no effect

Variants of: B1
Settings: with CCDC102B

Variant | effect of a mutation on the interaction
Q685K | with no effect

Variants of: B2
Settings: with zn446_human ZNF446, Q9NWS9
zn446_human ZNF446, Q9NWS9, sequence (Q9NWS9 whole entry): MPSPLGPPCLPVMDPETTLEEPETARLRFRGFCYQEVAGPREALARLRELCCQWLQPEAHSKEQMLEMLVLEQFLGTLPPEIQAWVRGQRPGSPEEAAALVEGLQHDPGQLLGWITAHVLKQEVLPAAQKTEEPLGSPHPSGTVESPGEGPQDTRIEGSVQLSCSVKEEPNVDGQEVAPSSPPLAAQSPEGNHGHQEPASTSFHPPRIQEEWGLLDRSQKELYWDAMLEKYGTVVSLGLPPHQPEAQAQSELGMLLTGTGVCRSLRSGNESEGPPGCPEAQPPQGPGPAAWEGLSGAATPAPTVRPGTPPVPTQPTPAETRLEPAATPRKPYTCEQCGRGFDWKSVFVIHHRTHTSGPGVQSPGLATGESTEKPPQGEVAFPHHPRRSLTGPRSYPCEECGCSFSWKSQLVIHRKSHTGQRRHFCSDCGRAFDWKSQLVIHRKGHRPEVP

Variant | effect of a mutation on the interaction
Q34R | with no effect

Variants of: B3
Settings: with FAM161A

Variant | effect of a mutation on the interaction
H36R | with no effect
I175M | with no effect

Variants of: B4
Settings: with cetn3_human CETN3, O15182

Variant | effect of a mutation on the interaction
H36R | with no effect

Variants of: B5
Settings: with pdc6i_human PDCD6IP

Variant | effect of a mutation on the interaction
R138Q | with no effect
H57Q | with no effect

Variants of: B5
Settings: with dpolm_human POLM

Variant | effect of a mutation on the interaction
H57Q | with no effect

Variants of: B5
Settings: with tead4_human TEAD4, Q15561
tead4_human TEAD4, Q15561, sequence (Q15561 whole entry): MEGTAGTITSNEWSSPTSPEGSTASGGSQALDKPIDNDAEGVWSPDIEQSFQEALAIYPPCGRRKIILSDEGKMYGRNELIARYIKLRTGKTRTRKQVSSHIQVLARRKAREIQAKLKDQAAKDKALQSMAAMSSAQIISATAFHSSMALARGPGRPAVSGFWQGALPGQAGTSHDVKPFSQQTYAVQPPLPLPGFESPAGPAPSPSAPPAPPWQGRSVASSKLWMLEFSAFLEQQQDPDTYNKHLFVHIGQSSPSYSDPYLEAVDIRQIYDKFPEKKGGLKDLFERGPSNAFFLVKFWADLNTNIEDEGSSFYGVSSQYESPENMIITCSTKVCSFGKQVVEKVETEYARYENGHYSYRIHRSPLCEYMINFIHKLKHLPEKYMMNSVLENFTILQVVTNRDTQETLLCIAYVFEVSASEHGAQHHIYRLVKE

Variant | effect of a mutation on the interaction
H57Q | with no effect

Variants of: B5
Settings: with anx11_human ANXA11, P50995
anx11_human ANXA11, P50995, sequence (P50995 whole entry): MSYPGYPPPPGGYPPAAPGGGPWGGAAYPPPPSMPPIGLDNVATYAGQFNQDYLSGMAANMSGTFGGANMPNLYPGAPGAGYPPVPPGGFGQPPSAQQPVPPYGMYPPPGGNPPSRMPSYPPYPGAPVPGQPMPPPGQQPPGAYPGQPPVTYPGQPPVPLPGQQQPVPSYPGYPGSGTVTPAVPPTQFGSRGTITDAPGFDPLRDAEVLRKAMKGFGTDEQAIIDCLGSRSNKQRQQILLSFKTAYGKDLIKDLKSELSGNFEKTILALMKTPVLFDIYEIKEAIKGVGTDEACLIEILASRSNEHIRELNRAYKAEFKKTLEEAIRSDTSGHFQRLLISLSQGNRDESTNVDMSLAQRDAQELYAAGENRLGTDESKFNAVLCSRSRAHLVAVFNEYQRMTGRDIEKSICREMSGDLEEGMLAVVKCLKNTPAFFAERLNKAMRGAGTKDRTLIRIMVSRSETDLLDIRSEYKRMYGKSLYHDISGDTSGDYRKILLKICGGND

Variant | effect of a mutation on the interaction
H57Q | with no effect
